Data published in patent US12068729B2, “Anti-factor XII/XIIa antibodies and uses thereof” (Regeneron Pharmaceuticals, Inc., priority 2018, dated 2024).

Assays:
human FXII [1] = molecular target: T1, human FXII (Homo sapiens, UniProt P00748); experiment: Surface plasmon resonance (Biacore 4000) binding kinetics, hFXII
T1 construct: plasma purified human FXII and FXIIa proteins (Enzyme Research Laboratories); purchased Enzyme Research Laboratories 1212; host or cells: human plasma (said of the same vendor's proteins used as immunogen)
T1 sequence (P00748 20-615): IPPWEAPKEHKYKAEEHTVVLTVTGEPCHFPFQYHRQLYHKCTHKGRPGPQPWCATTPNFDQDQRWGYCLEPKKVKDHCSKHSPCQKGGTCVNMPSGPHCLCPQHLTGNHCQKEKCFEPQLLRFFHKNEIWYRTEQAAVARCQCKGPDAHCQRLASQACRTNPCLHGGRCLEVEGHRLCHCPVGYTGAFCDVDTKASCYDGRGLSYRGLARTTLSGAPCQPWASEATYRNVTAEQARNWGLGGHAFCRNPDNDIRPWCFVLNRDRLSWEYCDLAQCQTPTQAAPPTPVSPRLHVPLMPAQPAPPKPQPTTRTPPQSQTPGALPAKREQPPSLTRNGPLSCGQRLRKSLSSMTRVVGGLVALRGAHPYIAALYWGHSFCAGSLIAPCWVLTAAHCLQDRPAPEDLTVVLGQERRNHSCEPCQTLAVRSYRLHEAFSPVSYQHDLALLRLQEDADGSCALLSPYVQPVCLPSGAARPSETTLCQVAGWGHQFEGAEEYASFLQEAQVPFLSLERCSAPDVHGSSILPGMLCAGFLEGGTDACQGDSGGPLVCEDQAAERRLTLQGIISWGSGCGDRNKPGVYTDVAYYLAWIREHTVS
Experimental: Equilibrium dissociation constant (KD) for different FXII reagents binding to purified anti-FXII monoclonal antibodies were determined using a real-time surface plasmon resonance based Biacore 4000 biosensor. All binding studies were performed in 10 mM HEPES, 300 mM NaCl, and 0.05% v/v Surfactant Tween-20, pH 7.4 (HBS-P) running buffer at 25° C. and 37° C. The Biacore CM5 sensor chip surface was first derivatized by amine coupling with the mouse anti-human Fc specific monoclonal antibody (GE Healthcare Cat #BR100839) to capture anti-FXII monoclonal antibodies. Binding studies were performed on human FXII and FXIIa (Enzyme Research Laboratories, Cat #1212 and 1212a, respectively). Different concentrations of hFXII and hFXIIa (50 nM-3.125 nM; 2-fold serial dilution) were first prepared in HBS-P running buffer and were injected over anti-human Fc captured anti-FXII monoclonal antibody surface for 3 minutes at a flow rate of 30 uL/minute, while the dissociation of monoclonal antibody bound FXII reagent was monitored for 5 minutes in HBS-P running buffer. The association rate (ka) and dissociation rate (kd) were determined by fitting the real-time binding sensorgrams to a 1:1 binding model with mass transport limitation using Scrubber 2.0c curve-fitting software. Binding dissociation equilibrium constant (KD) and dissociative half-life (t½) were calculated from the kinetic rates as: […]

[2] = tested on: Intrinsic and Common pathways of the coagulation cascade; experiment: Activated Partial Thromboplastin Time (aPTT) in pooled normal human plasma; format: biochemical; conditions: dose response curves, pooled normal human plasma
From the text: (§1) This Example describes the inhibitory activity of selected antibodies, as determined by four functional plasma assays: 1) Activated Partial Thromboplastin Time (aPTT), 2) Prothrombin Time (PT), 3) Thrombin Generation Assay (TGA) triggered by ellagic acid and 4) TGA triggered by Tissue Factor. The aPTT test evaluates all clotting factors of the Intrinsic and Common pathways of the coagulation cascade by measuring time for a clot to form after the addition of calcium and ellagic acid, whereas the PT test evaluates all clotting factors of the Extrinsic and Common pathways of the coagulation cascade after the addition of calcium and Tissue Factor. The TGA triggered by ellagic acid measures the rate and amount of thrombin generated via the Intrinsic and Common pathways whereas TGA triggered by Tissue Factor measures the rate and amount of thrombin generated via the Extrinsic and Common pathways.
(§2) The aPTT was determined on Diagnostica Stago STart4 Hemostasis Analyzer in the following manner: A total of 50 ul of pooled normal human plasma was added to a cuvette at 37° C. After 1 min, 5 ul of a 2× serially diluted test article (antibody or small molecule inhibitor) in PBS was added to the cuvette and allowed to incubate for 5 min. Then 50 ul of APPT-XL Ellagic Acid (Thermo Scientific) was added and allowed to incubate for 300 seconds before 50 ul of 20 mM calcium chloride (Thermo Scientific) was added to start the reaction. The measured clot time for the test article concentration was normalized to baseline (no drug) plasma clot time and plotted against log molar concentration of the test article. The results were analyzed using nonlinear regression (4-parameter logistics) with Prism 5 software (GraphPad) to obtain doubling time concentration.

[3] = tested on: Extrinsic and Common pathways of the coagulation cascade; experiment: Prothrombin Time (PT) in pooled normal human plasma; format: biochemical; conditions: for C2xt of Prothrombin Time (PT) - Extrinsic Pathway: dash cells, dose up to 4 uM; for effect on plasma PT (in words): dose response curves, pooled normal human plasma
From the text: as §1
as §2, with “The PT” for “The aPTT”, “following manner.” for “following manner:”, “Then 100” for “Then 50”, “of Tissue Factor (TriniCLOT PT Excel, Diagnostica Stago)” for “of APPT-XL Ellagic Acid (Thermo Scientific) was added and allowed to incubate for 300 seconds before 50 ul of 20 mM calcium chloride (Thermo Scientific)”

human FXII [4] = molecular target: T1, human FXII; experiment: Surface plasmon resonance (Biacore 4000) binding kinetics, hFXII; remark: listed apart in the source

Molecule | Kd (human FXII [1]; 25° C.) | ka (human FXII [1]; 25° C.) | kd (human FXII [1]; 25° C.) | t½ (human FXII [1]; 25° C.) | Kd (human FXII [1]; 37° C.) | ka (human FXII [1]; 37° C.) | kd (human FXII [1]; 37° C.) | t½ (human FXII [1]; 37° C.) | effect on plasma aPTT (in words) [2] | C2xt of Prothrombin Time (PT) - Extrinsic Pathway [3] | effect on plasma PT (in words) [3] | 100 nM Ag Bound (RU) (human FXII [4]; 25° C.) | 100 nM Ag Bound (RU) (human FXII [4]; 37° C.)
mAb26049: fully human anti-FXII/FXIIa monoclonal antibody, HCVR/LCVR SEQ ID NOs: 34/42 (antibody, V domains shown) VH: EVQLVESGGDLVQPGGSLRLSCAASGFTFNTYAMHWVRQAPGKGLEYISAIDTKGGSTYYADSVKGRFTISRDNSKNAQYLQMDSLRVEDMAVYYCARGFGLDVWGQGTTVTVSS VL: DVVMTQSPLSLAVTLGQPASISCRSSQSLGYSDGNTYLNWFQQRPGQSPRRLIYKVSNRDSGVPDRFSGSGSGTDFTLKINRVETVDVGVYYCMQATHWPYTFGQGTKLEIK | 2.74 nM | 90100 M⁻¹ s⁻¹ | 0.000247 s⁻¹ | 46.7 min | 8.78 nM | 87000 M⁻¹ s⁻¹ | 0.000764 s⁻¹ | 15 min | prolonged the aPTT | — (no inhibitory effect on clotting time with a dose up to 4 uM) | without increasing PT | 134.6 RU | 178.5 RU
mAb26036: fully human anti-FXII/FXIIa monoclonal antibody, HCVR/LCVR SEQ ID NOs: 2/10 (antibody, V domains shown) VH: QVQLVQSGAEVKKPGASVTVSCKASGYTFTSYYLHWVRQAPGQGLEWMGIINPSGGSTSYAQKFQGRVTMTRDTSTSTVYMELSSLRSEDTAVYYCARGVTTVTTYYHYYNMDVWGQGTTVTVSS VL: DIQMTQSPSSLSASVGDRVTITCRASQGISNYLAWFQQKPGKAPKSLIYAASSLQSGVPSKFSGSGSGTDFTLTISSLQPEDFATYYCQKYNTYPLTFGGGTKVEIK | 3.12 nM | 76300 M⁻¹ s⁻¹ | 0.000238 s⁻¹ | 48.5 min | 4.62 nM | 121000 M⁻¹ s⁻¹ | 0.00056 s⁻¹ | 20.6 min | prolonged the aPTT | — (no inhibitory effect on clotting time with a dose up to 4 uM) | without increasing PT | 146.2 RU | 272.3 RU
mAb26048: fully human anti-FXII/FXIIa monoclonal antibody, HCVR/LCVR SEQ ID NOs: 18/26 (antibody, V domains shown) VH: EVQLVESGGGLVQPRGSLRLSCVASGFTFSDYGMSWVRQAPGKGLEWVSVIGGAGHGTYYADSVKGRFTISRDNSRNTLYLQMNSLRDEDTAVYYCAKKYYWNYVGGMDVWGRGTTVTVSS VL: DIQMTQSPSSVSASVGDRVTITCRASQDINNWLAWYQQKPGKAPKLLISTASSLQSGVPSRFSGSGSGTDFTLTISSLQPEDFATYYCQQANSLPFTFGPGTKVDIK | 0.879 nM | 361000 M⁻¹ s⁻¹ | 0.000317 s⁻¹ | 36.5 min | 2.53 nM | 276000 M⁻¹ s⁻¹ | 0.000698 s⁻¹ | 17 min | prolonged the aPTT | — (no inhibitory effect on clotting time with a dose up to 4 uM) | without increasing PT | 327.5 RU | 400.6 RU
